Experimental data from patent US20210261677A1 (ORICELL THERAPEUTICS, published 2021).
Like-named read-outs stand apart in the source and are kept apart here.

Tests used:
[1] = molecular target: T1, human PD-L1 on cells (CHO cells that stably expressed human PD-L1; MDA-MB-231 cells) (human, UniProt Q9NZQ7 19-290); experiment: flow cytometry competition: biotin-labelled human PD-1-Fc at a subsaturated concentration on CHO cells stably expressing human PD-L1, antibody titrated, streptavidin R-PE detection
T1 construct: whole, on cells; Stably expressed on CHO cells; also called CHO cells expressing human PD-L1
Procedure: (§1) After cell washing, Streptavidin R-PE Conjugate (life technology, SA10041) was added and incubated (4° C., 30 min). After cell washing, the fluorescence intensity was detected by a flow cytometer (Intellicyt iQue Screener).

[2] = molecular target: T2, mouse PD-L1 on CHO cells that stably expressed mouse PD-L1 (mouse, UniProt Q9EP73 19-290); experiment: flow cytometry on CHO cells stably expressing mouse PD-L1, anti-human IgG-Fc DyLight 650 detection
T2 construct: whole, on cells; also called CHO cells expressing mouse PD-L1
Procedure: The mixture was mixed well and incubated at 4° C. for 1 hr. After cell washing, Goat F(ab′)₂ Anti-Human IgG-Fc (DyLight 650) (ab98593) was added and incubated at 4° C. for 30 min. After cell washing, the fluorescence intensity was detected by a flow cytometer (Intellicyt iQue Screener).

[3] = molecular target: T1, human PD-L1 on cells (CHO cells that …); experiment: flow cytometry on CHO cells stably expressing human PD-L1, anti-human IgG-Fc DyLight 650 detection
Procedure: After cell washing, Goat F(ab′)₂ Anti-Human IgG-Fc (DyLight 650) (ab98593, abcam) was added and incubated at 4° C. for 30 min. After cell washing, the fluorescence intensity was detected by a flow cytometer (Intellicyt iQue Screener).

[4] = molecular target: T3, recombinant human PD-L1-His protein (Origincell Therapeutics Co., Ltd.) (human, UniProt Q9NZQ7 19-238, limits assumed); experiment: BLI (Octet RED384), antibody on AHC sensor, PD-L1-His in solution
T3 construct: not shown: His tag

[5] = molecular target: T1, human PD-L1 on cells (CHO cells that …); experiment: flow cytometry on CHO cells stably expressing human PD-L1, anti-human IgG-Fc DyLight 650 detection; remark: listed apart in the source
Procedure: The mixture was mixed well and incubated at 4° C. for 1 hr. After cell washing, Goat F(ab)₂ Anti-Human IgG-Fc (DyLight 650) (ab98593, Abcam) was added and incubated at 4° C. for 30 min. After cell washing, the fluorescence intensity was detected by a flow cytometer (Intellicyt iQue Screener).

[6] = molecular target: T1, human PD-L1 on cells (CHO cells that …); experiment: flow cytometry on MDA-MB-231 cells (human PD-L1), anti-human IgG-Fc DyLight 650 detection
Procedure: Human breast cell strain MDA-MB-231 (Shanghai Chinese Academy of Sciences Cell Library) highly expresses the human PD-L1 molecule. […] After cell washing, Goat F(ab′)₂ Anti-Human IgG-Fc (DyLight 650) (ab98593, abcam) was added and incubated at 4° C. for 30 min. After cell washing, the fluorescence intensity was detected by a flow cytometer (Intellicyt iQue Screener).

[7] = molecular target: T2, mouse PD-L1 on CHO cells that stably …; experiment: flow cytometry competition: biotin-labelled mouse PD-1-Fc at a subsaturated concentration on CHO cells stably expressing mouse PD-L1, antibody titrated, streptavidin R-PE detection
Procedure: as §1

[8] = molecular target: T2, mouse PD-L1 on CHO cells that stably …; experiment: as above; remark: listed apart in the source
Procedure: as §1

[9] = molecular target: T1, human PD-L1 on cells (CHO cells that …); experiment: flow cytometry competition: biotin-labelled human PD-1-Fc at a subsaturated concentration on CHO cells stably expressing human PD-L1, antibody titrated, streptavidin R-PE detection; remark: listed apart in the source
Procedure: as §1

T2 sequence (Q9EP73 19-290): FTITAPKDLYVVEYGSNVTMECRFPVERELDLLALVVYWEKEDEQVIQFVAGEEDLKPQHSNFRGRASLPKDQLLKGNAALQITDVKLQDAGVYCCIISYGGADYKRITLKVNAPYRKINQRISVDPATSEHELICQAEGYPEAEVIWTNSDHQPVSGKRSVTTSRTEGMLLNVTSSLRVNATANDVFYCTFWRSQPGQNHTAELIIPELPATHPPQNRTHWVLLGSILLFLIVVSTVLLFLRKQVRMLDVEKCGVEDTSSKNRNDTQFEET
T3 sequence (Q9NZQ7 19-238 limits assumed): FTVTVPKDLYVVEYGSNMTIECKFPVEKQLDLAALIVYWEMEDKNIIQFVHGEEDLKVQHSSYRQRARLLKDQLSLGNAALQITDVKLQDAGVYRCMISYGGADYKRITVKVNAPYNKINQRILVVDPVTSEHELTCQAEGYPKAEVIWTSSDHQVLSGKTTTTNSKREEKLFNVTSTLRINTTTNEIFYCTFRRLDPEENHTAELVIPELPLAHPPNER
T1 sequence (Q9NZQ7 19-290): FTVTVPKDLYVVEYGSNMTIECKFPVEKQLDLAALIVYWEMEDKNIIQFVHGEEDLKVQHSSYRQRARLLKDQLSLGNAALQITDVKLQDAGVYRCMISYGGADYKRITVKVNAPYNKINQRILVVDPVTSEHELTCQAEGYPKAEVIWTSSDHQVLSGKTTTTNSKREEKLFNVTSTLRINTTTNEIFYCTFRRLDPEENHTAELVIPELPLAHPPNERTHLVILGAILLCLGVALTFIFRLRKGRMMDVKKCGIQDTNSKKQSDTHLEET

B1: PD-L1 antibody YN-036 (antibody, human IgG1, lambda, V domains shown)
VH: QVQLVQSGAEVKKPGSSVKVSCKASRGPFSTYAISWVRQAPGQGLEWMGRIIPILGIANYAQKFQGRVTITADKSTSTAYMELSSLRSEDTAVYYCARTMGEYSYGNYDYWGQGTLVTVSS
VL: QSALTQPASVSGSPGQSITISCTGTVSEVGGYNEVSWYQQHPGKAPKLMIYGNSNRPSGVSNRFSGSKSGNTASLTISGLQAEDEADYYCQSYDSSLSGTVFGGGTKLTVLG
notes: full-length IgG1,lambda
B1 was tested, and the “IC50 (read off the curve)” value [1] was ~2 nM, the “EC50 (read off the curve)” value [2] was ~4 nM and the “EC50 (read off the curve)” value [3] was ~4 nM. The Kd [4] was 0.474 nM, the koff [4] was 0.000175 s⁻¹ and the kon [4] was 369000 M⁻¹ s⁻¹. The “EC50 (read off the curve)” value [5] was 3 to 4 nM, the “EC50 (read off the curve)” value [6] was ~1 nM and the “IC50 (read off the curve)” value [7] was ~2 nM. For the same binder, the “IC50 (read off the curve)” value [8] was ~5 nM and the “IC50 (read off the curve)” value [9] was ~3 nM.
